The text below walks through data of US20210107981A1 (SUTRO BIOPHARMA, published 2021).

Like-named read-outs stand apart in the source and are kept apart here.

Test [1] concerns the target T1, Human PD-1 (ACROBiosystems, Inc., Catalog No. PD1-H5221) (human, UniProt Q15116 25-167).
T1 construct: Bought recombinant protein; also called huPD1-His; PD-1-his; not shown: His tag of the bought protein (huPD1-His)
Nature of the test: SPR (Biacore), IgG as ligand, PD-1-his as sample.

The target of test [2] is T2, cynomolgus PD-1 expressed on CHO cells (cynomolgus, UniProt B0LAJ3 25-288).
T2 construct: also called Cell-Surface Cynomolgus PD-1 antigen
T2 sequence (B0LAJ3 entry or part of it limits assumed, form in doubt): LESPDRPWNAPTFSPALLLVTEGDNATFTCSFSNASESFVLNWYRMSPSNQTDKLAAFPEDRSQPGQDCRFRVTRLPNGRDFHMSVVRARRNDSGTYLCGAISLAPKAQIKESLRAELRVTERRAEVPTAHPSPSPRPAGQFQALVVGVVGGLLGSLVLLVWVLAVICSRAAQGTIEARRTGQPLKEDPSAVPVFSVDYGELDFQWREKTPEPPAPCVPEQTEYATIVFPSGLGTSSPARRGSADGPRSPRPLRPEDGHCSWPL
Nature of the test: FACS cell binding on CHO cells expressing cynomolgus PD-1. As to the method: (§1) A mix of parental CHO cells and CHO-PD1 cells was prepared as follows: Parental CHO cells were washed 2× in PBS then incubated in PBS containing 1 μM CellTrace™ Oregon Green488® (Life Technologies) at 37° C. for 30 minutes. Cells were then washed 2× with RPMI w/10% fetal calf serum (FCS), washed 2× with FACS buffer (PBS w/2% FCS), suspended thoroughly in ice-cold FACS buffer at a final concentration of 2×10⁶ cells/mL and kept on ice. CHO-PD1 cells were similarly washed with FACS buffer and kept on ice at 2×10⁶ cells/mL. Parental CHO cells and CHO-PD1 cells were then mixed to obtain a 1:1 cell suspension and seeded at 100 μL per well on 96 well polypropylene plates. Plates were spun at 1500 rpm for 5 minutes and cell pellets were suspended in 50 μL FACS buffer containing 6-12 point dilutions of anti-PD-1 variants starting from concentrations of −100-200 nM antibody, dispensed using BioMek FX (Beckman Coulter). Cells were then incubated on ice for 1 hr, washed with FACS buffer and incubated for 1 hr on ice with 50 μL FACS buffer containing 2.5 μg/ml R-phycoerythrin-conjugated goat anti-Human IgG (Jackson ImmunoResearch) or AF647-conjugated goat anti-mouse IgG (Life Technologies) dispensed using BioMek FX (Beckman Coulter). Cells were then washed 2× with FACS buffer and fixed for 10 minutes in 200 μL PBS with 2% paraformaldehyde (PFA) prior to fluorescence detection. Samples were acquired using a Becton Dickinson LSRII FACS. Mean Fluorescence Intensity of PD-1 antibody binding was analyzed using FlowJo® software (Tree Star, Inc.).
The affinity of the IgGs for cell-surface expressed cynomolgus PD-1 were measured according to Example 6, above.

The target in test [3] is T1, Human PD-1 (ACROBiosystems, Inc., …). Briefly: SPR (Biacore), IgG as ligand, PD-1-his as sample. The source holds these as a separate data set. For orientation: Surface plasmon resonance follows binding to a sensor surface in real time, without labels.
For test [4], the target named is T3, human PD-1 expressed on the cell surface (CHO-PD1 cells) (human, UniProt Q15116 25-288).
T3 construct: Also used here as the target for native PD-1 on human PBMC / T cells in the functional (IFN-g) assays; also called CHO cell line overexpressing human PD-1; Cell-Surface Human PD-1 antigen
T3 sequence (Q15116 25-288 limits assumed): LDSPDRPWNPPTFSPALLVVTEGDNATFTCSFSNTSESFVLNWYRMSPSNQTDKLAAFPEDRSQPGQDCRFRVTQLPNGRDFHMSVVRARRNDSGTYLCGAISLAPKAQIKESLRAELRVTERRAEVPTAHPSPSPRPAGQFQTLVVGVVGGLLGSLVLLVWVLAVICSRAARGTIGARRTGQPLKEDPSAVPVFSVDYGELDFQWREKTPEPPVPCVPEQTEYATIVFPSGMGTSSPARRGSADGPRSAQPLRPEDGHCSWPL
Briefly: FACS cell binding on CHO cells expressing human PD-1. As to the method: as §1
The affinity of the IgGs for cell-surface expressed human PD-1 were measured according to Example 6, above.

T1 sequence (Q15116 25-167 limits assumed): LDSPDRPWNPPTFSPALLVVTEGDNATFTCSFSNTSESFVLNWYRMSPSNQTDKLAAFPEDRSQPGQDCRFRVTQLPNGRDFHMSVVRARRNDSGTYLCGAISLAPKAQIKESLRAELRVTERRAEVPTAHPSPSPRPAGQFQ

B1: h1E9-4 IgG (antibody)
heavy: not shown
light: MDIQLTQSPSFLSASVGDRVTITCRASESVDNSGISFMSWYQQKPGKAPKLLIYTASNQGSGVPSRFSGSGSGTEFTLTISSLQPEDFATYYCQQSKEVPWTFGQGTKVEIKRTVAAPSVFIFPPSDEQLKSGTASVVCLLNNFYPREAKVQWKVDNALQSGNSQESVTEQDSKDSTYSLSSTLTLSKADYEKHKVYACEVTHQGLSSPVTKSFNRGEC
notes: Human IgG1; heavy chain with C-terminal FlagHis tag; made by cell-free expression; also called h1E9-4 human IgG1
Broadly, the Kd is the equilibrium constant for the complex coming apart. Lower therefore signals a tighter complex. As usually defined, the koff is the first-order rate constant of dissociation. High values mean a short-lived complex, low ones a long-lived complex. In general, kon refers to the second-order rate constant of association. For the molecule B1, in test [1], the Kd stood at 12.4 nM, the koff came to 0.000442 s⁻¹ and the kon is 35600 M⁻¹ s⁻¹.

B2: h1E9-HC3 × h1E9-LC4 IgG (antibody)
heavy: not shown
light: MDIVLTQSPDSLAVSLGERATINCRASESVDNSGISFMSWYQQKPGQPPKLLIYTASNQGSGVPDRFSGSGSGTDFTLTISSLQAEDVAVYYCQQSKEVPWTFGQGTKVEIKRTVAAPSVFIFPPSDEQLKSGTASVVCLLNNFYPREAKVQWKVDNALQSGNSQESVTEQDSKDSTYSLSSTLTLSKADYEKHKVYACEVTHQGLSSPVTKSFNRGEC
notes: Humanized IgG; heavy chain with C-terminal FlagHis tag
With B2, the figures for the dissociation constant (Kd) in test [2], in test [3] and in test [4] were 5 nM, 9.4 nM and 9 nM, respectively.

B3: h1E9-5-IgG-HC-FLAG-HIS × h1E9-LC4 IgG (antibody)
heavy: not shown
light: MDIVLTQSPDSLAVSLGERATINCRASESVDNSGISFMSWYQQKPGQPPKLLIYTASNQGSGVPDRFSGSGSGTDFTLTISSLQAEDVAVYYCQQSKEVPWTFGQGTKVEIKRTVAAPSVFIFPPSDEQLKSGTASVVCLLNNFYPREAKVQWKVDNALQSGNSQESVTEQDSKDSTYSLSSTLTLSKADYEKHKVYACEVTHQGLSSPVTKSFNRGEC
notes: also called h1E9-5 HC × h1E9-LC4
Turning to B3, the Kd in test [2] came out at 12 nM; in test [3], 7.31 nM; in test [4] it was 14 nM.

B4: h1E9-HC2 × h1E9-LC4 IgG (antibody)
heavy: not shown
light: MDIVLTQSPDSLAVSLGERATINCRASESVDNSGISFMSWYQQKPGQPPKLLIYTASNQGSGVPDRFSGSGSGTDFTLTISSLQAEDVAVYYCQQSKEVPWTFGQGTKVEIKRTVAAPSVFIFPPSDEQLKSGTASVVCLLNNFYPREAKVQWKVDNALQSGNSQESVTEQDSKDSTYSLSSTLTLSKADYEKHKVYACEVTHQGLSSPVTKSFNRGEC
notes: as for B2
For the molecule B4, the Kd in test [2] is 6 nM; in test [3], 4.96 nM; in test [4], 4 nM.

B5: h1E9-HC1 × h1E9-LC4 IgG (antibody)
heavy: not shown
light: MDIVLTQSPDSLAVSLGERATINCRASESVDNSGISFMSWYQQKPGQPPKLLIYTASNQGSGVPDRFSGSGSGTDFTLTISSLQAEDVAVYYCQQSKEVPWTFGQGTKVEIKRTVAAPSVFIFPPSDEQLKSGTASVVCLLNNFYPREAKVQWKVDNALQSGNSQESVTEQDSKDSTYSLSSTLTLSKADYEKHKVYACEVTHQGLSSPVTKSFNRGEC
notes: as for B2
In the case of B5, the Kd in test [2] was determined as 11 nM; in test [3], 6.33 nM; in test [4], 8 nM.

B6: h1E9-5 IgG (antibody)
heavy: not shown
light: MEIVLTQSPATLSLSPGERATLSCRASESVDNSGISFMSWYQQKPGQAPRLLIYTASNQGSGIPARFSGSGSGTDFTLTISSLEPEDFAVYYCQQSKEVPWTFGQGTKVEIKRTVAAPSVFIFPPSDEQLKSGTASVVCLLNNFYPREAKVQWKVDNALQSGNSQESVTEQDSKDSTYSLSSTLTLSKADYEKHKVYACEVTHQGLSSPVTKSFNRGEC
notes: Human IgG1; heavy chain with C-terminal FlagHis tag; made by cell-free expression; also called h1E9-5 human IgG1
In test [1], B6 registered a Kd of 19.4 nM, a koff of 0.000471 s⁻¹ and a kon of 24300 M⁻¹ s⁻¹.

B7: h1E9-HC3 × h1E9-LC2 IgG (antibody)
heavy: not shown
light: MDIVLTQSPLSLPVTPGEPASISCRASESVDNSGISFMSWYLQKPGQSPQLLIYTASNQGSGVPDRFSGSGSGTDFTLKISRVEAEDVGVYYCQQSKEVPWTFGQGTKVEIKRTVAAPSVFIFPPSDEQLKSGTASVVCLLNNFYPREAKVQWKVDNALQSGNSQESVTEQDSKDSTYSLSSTLTLSKADYEKHKVYACEVTHQGLSSPVTKSFNRGEC
notes: as for B2
Take B7: the Kd is 11 nM in test [2], 3.19 nM in test [3] and 19 nM in test [4].

B8: h1E9-5-IgG-HC-FLAG-HIS × h1E9-LC2 IgG (antibody)
heavy: not shown
light: MDIVLTQSPLSLPVTPGEPASISCRASESVDNSGISFMSWYLQKPGQSPQLLIYTASNQGSGVPDRFSGSGSGTDFTLKISRVEAEDVGVYYCQQSKEVPWTFGQGTKVEIKRTVAAPSVFIFPPSDEQLKSGTASVVCLLNNFYPREAKVQWKVDNALQSGNSQESVTEQDSKDSTYSLSSTLTLSKADYEKHKVYACEVTHQGLSSPVTKSFNRGEC
notes: also called h1E9-5 HC × h1E9-LC2
As for B8, the dissociation constant (Kd) in test [2] was found to be 11 nM; in test [3], 16.2 nM; in test [4], 16 nM.

B9: h1E9-HC1 × h1E9-LC2 IgG (antibody)
heavy: not shown
light: MDIVLTQSPLSLPVTPGEPASISCRASESVDNSGISFMSWYLQKPGQSPQLLIYTASNQGSGVPDRFSGSGSGTDFTLKISRVEAEDVGVYYCQQSKEVPWTFGQGTKVEIKRTVAAPSVFIFPPSDEQLKSGTASVVCLLNNFYPREAKVQWKVDNALQSGNSQESVTEQDSKDSTYSLSSTLTLSKADYEKHKVYACEVTHQGLSSPVTKSFNRGEC
notes: as for B2
Consider B9, for which the Kd in test [2] was found to be 19 nM; in test [3] it was 19 nM; in test [4] it was 12 nM.

B10: h1E9-HC2 × h1E9-LC2 IgG (antibody)
heavy: not shown
light: MDIVLTQSPLSLPVTPGEPASISCRASESVDNSGISFMSWYLQKPGQSPQLLIYTASNQGSGVPDRFSGSGSGTDFTLKISRVEAEDVGVYYCQQSKEVPWTFGQGTKVEIKRTVAAPSVFIFPPSDEQLKSGTASVVCLLNNFYPREAKVQWKVDNALQSGNSQESVTEQDSKDSTYSLSSTLTLSKADYEKHKVYACEVTHQGLSSPVTKSFNRGEC
notes: as for B2
With B10, the Kd stood at 9 nM in test [2], 12.3 nM in test [3] and 11 nM in test [4].
